Results on two compounds are retold here after paper PMC3400614, “Cofactor Binding Protects Flavodoxin against Oxidative Stress” (PLoS ONE, 2012).

Assay [1] has as its target T1, flavodoxin II (flavodoxin; apoflavodoxin) (Azotobacter vinelandii, UniProt P00324).
T1 construct: gene nifF; full-length wild type, 179 residues, expressed in E. coli TG2 (pAV34); monomer; apoprotein made by TCA precipitation
Kind of assay: native nano-electrospray mass spectrometry. In kind it is binding. The following applies: non-covalent, one FMN per monomer; 50 mM ammonium acetate, 0.1 mM EDTA, pH 6.8.

The target in assay [2] is Apoflavodoxin (A. vinelandii flavodoxin II without FMN cofactor) (Azotobacter vinelandii) (UniProt P00324). As to the kind of experiment: SEC; data not shown; apoflavodoxin freshly prepared and during storage.
The target is the same in assay [3]. As to the kind of experiment: anion exchange chromatography; MonoQ HR5/5, 25 mM Tris-HCl pH 8.0, KCl gradient, 1.0 mL/min, 25°C; apoflavodoxin 50 μM left without DTT.
For assay [4] the target is unchanged. As to the kind of experiment: SEC; Superdex 75 HR 10/30, 0.5 mL/min, 25°C; apoprotein (38 μM wild type, 79 μM C69A) fresh and after 22-24 h with 10 mM H2O2 at 4°C; DTT removed before. In general terms: Size exclusion chromatography separates by hydrodynamic size, large species first.
Assay [5] shares this target. Kind of assay: LC-MS; reversed phase (acetonitrile, TFA) and electrospray MS; protein 5 µM after 30 min at room temperature with 10 or 100 mM H2O2, with or without 190-200 µM NBD-Cl; denaturing, shows covalent dimers only.

The stoichiometry N is a count of units in the complex or per binding partner.

T1 sequence (P00324 2-180): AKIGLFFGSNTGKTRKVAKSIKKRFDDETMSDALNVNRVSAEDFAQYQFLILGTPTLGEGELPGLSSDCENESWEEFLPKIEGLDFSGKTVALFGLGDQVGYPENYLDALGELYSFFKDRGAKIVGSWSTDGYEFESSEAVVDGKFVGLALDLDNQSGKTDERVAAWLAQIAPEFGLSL

Consider `Cc1cc2nc3c(=O)[nH]c(=O)nc-3n(C[C@H](O)[C@H](O)[C@H](O)COP(=O)(O)O)c2cc1C` [FMN], for which the “native nano-electrospray mass spectrometry” value in assay [1] was “flavodoxin indeed contains a single, non-covalently bound, FMN cofactor”.
Consider “Apoflavodoxin (A. vinelandii flavodoxin II without FMN cofactor) (from UniProt P00324 1-180) (natural protein)”, for which the stoichiometry N in assay [2], in assay [3], in assay [4] and in assay [5] was 2 each time.
